Results as given in paper PMC2275104 (Nucleic Acids Research, 2008).

T1: MCM beta-finger mutant (Methanothermobacter thermautotrophicus, UniProt O27798 1-666, R227A;K229A)
T1 sequence: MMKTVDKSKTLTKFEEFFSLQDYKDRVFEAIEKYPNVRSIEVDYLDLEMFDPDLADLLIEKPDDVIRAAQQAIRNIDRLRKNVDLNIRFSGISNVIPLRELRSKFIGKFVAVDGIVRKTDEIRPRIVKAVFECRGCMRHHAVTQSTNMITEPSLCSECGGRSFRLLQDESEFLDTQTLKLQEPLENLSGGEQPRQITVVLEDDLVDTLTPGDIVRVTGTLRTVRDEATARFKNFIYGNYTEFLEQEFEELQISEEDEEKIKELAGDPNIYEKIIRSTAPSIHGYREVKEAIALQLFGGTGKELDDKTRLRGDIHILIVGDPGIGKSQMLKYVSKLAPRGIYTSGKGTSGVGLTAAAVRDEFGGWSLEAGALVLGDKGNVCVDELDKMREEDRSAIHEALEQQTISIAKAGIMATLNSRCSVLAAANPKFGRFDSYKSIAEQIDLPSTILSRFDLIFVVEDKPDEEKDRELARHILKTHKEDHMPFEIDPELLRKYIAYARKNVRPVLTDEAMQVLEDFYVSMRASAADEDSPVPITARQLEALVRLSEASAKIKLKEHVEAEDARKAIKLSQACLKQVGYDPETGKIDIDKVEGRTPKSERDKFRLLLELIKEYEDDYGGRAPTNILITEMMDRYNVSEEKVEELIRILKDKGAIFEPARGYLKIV

T2: MCM E182R (Methanothermobacter thermautotrophicus, UniProt O27798 1-666, E182R)
T2 sequence: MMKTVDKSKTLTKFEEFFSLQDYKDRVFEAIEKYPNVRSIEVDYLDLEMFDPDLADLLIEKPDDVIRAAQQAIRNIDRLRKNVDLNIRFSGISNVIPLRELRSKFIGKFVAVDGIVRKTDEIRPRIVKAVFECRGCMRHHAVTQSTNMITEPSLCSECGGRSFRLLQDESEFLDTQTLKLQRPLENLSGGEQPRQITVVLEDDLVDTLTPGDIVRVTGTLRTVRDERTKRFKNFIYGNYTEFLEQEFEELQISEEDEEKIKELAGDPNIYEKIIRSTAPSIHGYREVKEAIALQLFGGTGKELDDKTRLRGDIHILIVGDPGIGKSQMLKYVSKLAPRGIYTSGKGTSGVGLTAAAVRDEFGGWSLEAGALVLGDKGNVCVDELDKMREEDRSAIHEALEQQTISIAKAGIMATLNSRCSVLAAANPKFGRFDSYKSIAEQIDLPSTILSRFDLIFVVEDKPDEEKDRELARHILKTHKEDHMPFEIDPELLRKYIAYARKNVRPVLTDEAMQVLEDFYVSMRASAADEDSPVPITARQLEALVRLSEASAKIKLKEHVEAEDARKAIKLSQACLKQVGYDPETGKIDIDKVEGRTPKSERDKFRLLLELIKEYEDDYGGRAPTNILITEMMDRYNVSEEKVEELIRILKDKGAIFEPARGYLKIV

T3: MCM P193G (Methanothermobacter thermautotrophicus, UniProt O27798 1-666, P193G)
T3 sequence: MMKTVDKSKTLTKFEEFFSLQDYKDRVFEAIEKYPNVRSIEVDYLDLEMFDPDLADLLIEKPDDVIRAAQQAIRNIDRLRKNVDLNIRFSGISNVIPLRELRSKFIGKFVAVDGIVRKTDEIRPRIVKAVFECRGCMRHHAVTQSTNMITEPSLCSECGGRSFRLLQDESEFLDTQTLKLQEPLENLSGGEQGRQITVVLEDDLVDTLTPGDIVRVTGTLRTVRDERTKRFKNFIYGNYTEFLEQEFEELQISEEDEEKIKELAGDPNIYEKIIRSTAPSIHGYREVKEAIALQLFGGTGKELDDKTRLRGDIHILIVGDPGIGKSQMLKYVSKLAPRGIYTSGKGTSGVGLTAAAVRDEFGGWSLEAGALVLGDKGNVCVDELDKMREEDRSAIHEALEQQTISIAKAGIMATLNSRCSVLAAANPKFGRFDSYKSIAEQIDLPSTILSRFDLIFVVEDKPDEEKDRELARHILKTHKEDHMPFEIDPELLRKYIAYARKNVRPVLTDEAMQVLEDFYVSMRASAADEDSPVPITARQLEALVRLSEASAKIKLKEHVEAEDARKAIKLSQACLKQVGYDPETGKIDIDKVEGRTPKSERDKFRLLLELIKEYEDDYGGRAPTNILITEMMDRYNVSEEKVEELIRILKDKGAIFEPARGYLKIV


Key:
[1] = molecular target: M. thermautotrophicus MCM (MTH1770) (Methanothermobacter thermautotrophicus, UniProt O27798); settings: labelled compound; Hepes-NaOH pH 7.5, 5 mM MgCl2, 60°C
M. thermautotrophicus MCM (MTH1770), sequence (O27798 1-666): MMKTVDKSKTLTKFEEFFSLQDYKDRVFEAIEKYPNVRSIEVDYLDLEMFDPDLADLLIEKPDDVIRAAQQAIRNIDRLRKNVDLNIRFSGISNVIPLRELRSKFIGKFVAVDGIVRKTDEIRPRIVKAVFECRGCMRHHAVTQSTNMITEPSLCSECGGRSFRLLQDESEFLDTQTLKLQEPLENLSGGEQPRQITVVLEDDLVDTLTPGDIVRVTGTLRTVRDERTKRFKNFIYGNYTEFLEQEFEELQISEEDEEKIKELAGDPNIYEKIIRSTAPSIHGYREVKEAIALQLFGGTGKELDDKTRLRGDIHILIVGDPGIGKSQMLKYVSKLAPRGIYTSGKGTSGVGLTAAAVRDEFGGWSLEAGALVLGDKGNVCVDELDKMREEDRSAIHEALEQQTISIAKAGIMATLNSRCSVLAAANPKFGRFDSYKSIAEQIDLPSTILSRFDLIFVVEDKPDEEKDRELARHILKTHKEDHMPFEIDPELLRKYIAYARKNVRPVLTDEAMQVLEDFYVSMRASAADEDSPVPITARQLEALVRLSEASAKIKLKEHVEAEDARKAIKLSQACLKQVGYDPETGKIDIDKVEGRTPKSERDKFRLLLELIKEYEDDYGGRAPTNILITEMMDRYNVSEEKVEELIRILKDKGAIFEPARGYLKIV

MCM beta-finger mutant = molecular target: T1, MCM beta-finger mutant; test: fluorescence anisotropy
MCM E182R = molecular target: T2, MCM E182R; test: fluorescence anisotropy
MCM P193G = molecular target: T3, MCM P193G; test: fluorescence anisotropy

Molecule	% ATP cross-linked relative to wild type [1]	binding result (MCM beta-finger mutant)	binding result (MCM E182R)	binding result (MCM P193G)
Nc1ncnc2c1ncn2[C@@H]1O[C@H](COP(=O)(O)OP(=O)(O)OP(=O)(O)O)[C@@H](O)[C@H]1O [ATP]	UV crosslinking of ATP to the various MCM proteins was performed	–	–	–
CGCAGATAACAGTTGTCCTGGAGAACGACCTGGTTGACACCCTCACACCC (ssDNA) [50-mer Cy3-ssDNA]	–	no binding	binds	binds
